The nature of the data set: yeast display, Sf9 membrane polyspecificity reagent, FACS + sequencing; frameworks hold sequencing errors. The essentials:
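Genes from sorted yeast were amplified by colony PCR, read by MiSeq 2 × 250 sequencing and filtered on CDR length. These cells carried a synthetic nanobody library in Saccharomyces cerevisiae BJ5465 and were sorted by FACS into low and high (top ~1%) gates on anti-HA and streptavidin fluorescence. Polyreactivity is labelled according to the gate of origin.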
For “QVQLVESGGGLVRAGGSLRISCAASGSIFDVNDMGWYRQAPGKERELVASISWNGGSPYYADSVKRRFTISRDNAKNTVYLQLNILNPEDTAVYYCNRSYRRPTSDLYDYWGQGTQVTVSS”, the “polyreactivity (PSR sort gate)” value is reported as “low polyreactivity”. Next, “QVQLVESGGGRVHAGGSHRISCAASGSIFGRYAMGGYRQAPRQDREVVAAISSRGGSTYYADTVKGRFTISRDNAKNTVYLQMTSLKPEDTAFYYCAKENWCTSYYARYDDWGQGTQVTVSS”: “high polyreactivity”; “QVQLVESGGGVDQAGGSLRLSCAACGSTIPYYAMGWYRQAPGKERELVAAISASTGSTNYADSVKGRFTISRDNAKNTVYLQMNSLKPEDTAVYYCAKKRSKIKRFGYWGHGTQVTVSS”: “high polyreactivity”. In the case of “QVQLVESGGGVFQAGGSLRLSCAASGSIYAFNPMGWYRQAPGKETEFVASIRSSTGRTYYADSVKGRFTISRDNAKNTVYLQMNSLKPEDTAVYYCAADSPEKPPRRWYITWPDGYWGQGTQVTVSS”, the “polyreactivity (PSR sort gate)” value was “low polyreactivity”. Next, “QVQLVESGGGVLQAGGSLRLSCAASGSTFAFYAMVRYREAPGKVRELVAAISRSGGRTYYADSVKGRFTISRDNAKNTVYLQMNSLIPEDTAVYYCAAPSGITTGPHREYDYWGLGTQVTVSS”: “high polyreactivity”; “QVQLVESGGGVVHAGGSLLLSCAASGRTFFRYVKGWYRQEPGKERELVAAISTRGGSTYYADSVKGRFTISRDNAKNTVYLQMNSLKPEDSAVYYCAADVPTGYDYWGQGTQVTVSS”: “high polyreactivity”.

In the case of “QVQLVESGGGVVQAGASLRLSCAASGNIFYGYAMGWYRQAPGKERELVARINWSGSRTYYADSVKGRFTISRDNAKNTVYLQMNSLKPEDTAVYYCNTSTSRVPGNGDYWGQGSQVTVSS”, the “polyreactivity (PSR sort gate)” value is “high polyreactivity”.

Regarding “QVQLVESGGGVVQAGGILSLSCAASGFTFATYAMGWYRQAPGKERELVAGITRSGGSTYYADSVKGRFTNSRYNAKNTVYLQMNSLKPEDTAVYYCNKAYGGDKYSGTYDYWGQGTQVTVSS”, the “polyreactivity (PSR sort gate)” value is “high polyreactivity”. As to “QVQLVESGGGVVQAGGSLRLICAASGLTFDKYTMGRYRQAPGKERELVARISTSGSRTYYADSVKGRFTISRDNAKNTVYLQMNSLIPEDTEVYYCNKDGWIRRRRGYDYWGQGTQVTVSS”, the “polyreactivity (PSR sort gate)” value is recorded as “high polyreactivity”.

As to “QVQLVESGGGVVQAGGSLRLRCAASGSTVLGYVMGWYRQAPGKERELVAAITRSGGRTYYADSVQGRFTISRDNAKNTVSLQMNSLKPEETAVYYCAALRGPSFHGYGYWGQGTQVTVSS”, the “polyreactivity (PSR sort gate)” value is “high polyreactivity”. The entry for “QVQLVESGGGVVQAGGSLRLSCAASGFIFSVIVMGWYRQAPGKERELVASIPSGGSPYYADSVKGRFTISRDNAKNTVYLQMNSLKPEDTAVYYCAAEFVRSVEHHPGFDYWGQGTQVTVSS” is “low polyreactivity”; for “QVQLVESGGGVVQAGGSLRLSCAASGFTFARYTMGWYRPAPGKERELVAAISSRGSSTYYADSVKGRFTISRDNAKNTVYLQMNSLKPEDTAVYYCAKAYYTPYGVYVLHYYWGQGTQVTVSS” it is “high polyreactivity”; for “QVQLVESGGGVVQAGGSLRLSCAASGFTFAYYATGWYRQAPGKERELVAAISRSGGSTYYADSVKGRFTISRDNAKNTVYLHMNSLKPEDTAVYYCARDQRKLGADFDSWGQRTQVTVSS” it is “high polyreactivity”. The entry for “QVQLVESGGGVVQAGGSLRLSCAASGFTFGLYAMGWYRQAPGKERELVAVISSSGGSTYYADSVKGRFTISRDNAKNTVYLQMNSLKPEDTAVYYCAAEWHDYKFDVTYDYWGQGTQVTVSS” is “low polyreactivity”. The entry for “QVQLVESGGGVVQAGGSLRLSCAASGIIFDGNAMGWYRQAPGKERELVAAITSSTDSTYYADSVKGRFTFSRDNAKNTVYLQMNSLKPEDTAVYYCAADYPSKTFDYWGQGTQVTVSS” is “low polyreactivity”; for “QVQLVESGGGVVQAGGSLRLSCAASGIIFLYNVMGWYRQAPAKERELVAAISWRGGTYYAHSVKGRFTISRDNAKNSVYLQMNSLKPEDTAVYYCNTYPAASLYGFSYPYRYDSWGQGTQVTVSS” it is “high polyreactivity”.

The values are drawn from the nanobody polyreactivity screen of Harvey et al. (2022).
